Test results reported in patent publication US20260250371A1 (ULTRAGENYX PHARMACEUTICAL, published 2026).
Where “and” joins values, the source holds several entries; their conditions need not be identical. Identical values can stand only once. Like-named read-outs stand apart in the source and are kept apart here.

Columns and labels:
[1] = molecular target: T1, recombinant human FGF23 (R179Q) (human, UniProt Q9GZV9 25-251); assay: SPR, antibody captured on hIgG chip, rhFGF23(R179Q) analyte
T1 construct: also called rhFGF23(R179Q); hFGF23(R179Q)
T1 sequence (looked up): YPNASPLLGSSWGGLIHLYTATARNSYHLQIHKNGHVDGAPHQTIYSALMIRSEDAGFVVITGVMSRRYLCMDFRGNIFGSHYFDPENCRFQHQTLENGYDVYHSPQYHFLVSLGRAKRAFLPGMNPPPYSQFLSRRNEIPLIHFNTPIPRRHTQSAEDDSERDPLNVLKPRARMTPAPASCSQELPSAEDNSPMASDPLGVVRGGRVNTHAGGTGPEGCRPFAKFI

[2] = molecular target: T1, recombinant human FGF23 (R179Q); assay: SPR, antibody captured on hIgG chip, human FGF23 analyte
[3] = molecular target: T1, recombinant human FGF23 (R179Q); assay: SPR, antibody captured on hIgG chip, rhFGF23(R179Q) analyte; remark: listed apart in the source
[4] = molecular target: T2, cynomolgus monkey (Macaca fascicularis) FGF23 (R179Q) (cynomolgus monkey (Macaca fascicularis), UniProt Q9GZV9 25-251 (human entry), limits assumed); assay: SPR, antibody captured on hIgG chip, cynoFGF23(R179Q) analyte, single cycle kinetics
T2 construct: also called cynoFGF23; cynoFGF23(R179Q)
T2 chain: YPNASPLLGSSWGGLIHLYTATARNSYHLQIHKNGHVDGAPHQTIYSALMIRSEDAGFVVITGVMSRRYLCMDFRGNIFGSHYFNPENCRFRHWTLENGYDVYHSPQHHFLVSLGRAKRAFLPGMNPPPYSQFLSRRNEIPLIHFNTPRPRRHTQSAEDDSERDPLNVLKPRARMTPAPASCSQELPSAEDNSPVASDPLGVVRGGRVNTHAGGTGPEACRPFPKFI
Method: Binding kinetics of 13 antibody variants shown in Table 19 were characterized against cynomolgus monkey (Macaca fascicularis) FGF23 (R179Q) (i.e., “cynoFGF23”) (SEQ ID NO: 372). Antibody variants were expressed at small scale (3 ml) and screened by SPR analysis at a single concentration (100 nM). Experimental setup of SPR analysis for CRC: SPR device—8K+; chip preparation—CM5 hIgG chip: channels—1-8; immobilization concentration—1.5 ug/ml; immobilization method—capture; flow rate—5 μl/min; contact time—60 s; running buffer—1×HBS-EP+pH 7.4; temperature—20° C.: flow rate—50 μl/min; association time—120 s; dissociation time—1800 s; antigen—cynoFGF23(R179Q): top concentration—0.1 μM, 9-pt 3-fold Single Cycle Kinetics.

B1: Burosumab (antibody, human IgG1, kappa, V domains shown)
VH: QVQLVQSGAEVKKPGASVKVSCKASGYTFTNHYMHWVRQAPGQGLEWMGIINPISGSTSNAQKFQGRVTMTRDTSTSTVYMELSSLRSEDTAVYYCARDIVDAFDFWGQGTMVTVSS
VL: AIQLTQSPSSLSASVGDRVTITCRASQGISSALVWYQQKPGKAPKLLIYDASSLESGVPSRFSGSGSGTDFTLTISSLQPEDFATYYCQQFNDYFTFGPGTKVDIKR
notes: Recombinant human IgG1 kappa; also called burosumab-twza; parental burosumab
[1]
  Kd: 0.0208 nM
  Ratio (variant antibody KD/burosumab KD): 1
  SA (surface activity): 88.8%
  koff: 0.000157 s⁻¹
  kon: 7.22e+06 M⁻¹ s⁻¹

B2: UGX156 (antibody, human IgG1, kappa, V domains shown)
VH: QVQLVQSGAEVKKPGASVKVSCKASGYTFTNHYMHWVRQAPGQGLEWMGIINPFSGSTSNAQKFQGRVTMTRDTSTSTVYMELSSLRSEDTAVYYCARDIVDAFDFWGQGTMVTVSS
VL: AIQLTQSPSSLSASVGDRVTITCRASQGISSALVWYQQKPGKAPKLLIYDASSLESGVPSRFSGSGSGTDFTLTISSLQPEDFATYYCQQFNDYFTFGPGTKVDIKR
notes: also called HC:I54F; I54F
[2]
  KD ratio (variant antibody KD/burosumab KD): 2
  Kd: 0.0105 nM
[3]
  Kd: 0.00924 nM and 0.0105 nM
  Ratio (variant antibody KD/burosumab KD): 2
  koff: 9.77e-05 s⁻¹ and 6.25e-05 s⁻¹
  kon: 1.06e+07 M⁻¹ s⁻¹ and 5.94e+06 M⁻¹ s⁻¹
[1]
  Kd: 0.0105 nM
  Ratio (variant antibody KD/burosumab KD): 2
  SA (surface activity): 106%
  koff: 6.25e-05 s⁻¹
  kon: 5.94e+06 M⁻¹ s⁻¹
[4]
  KD ratio (variant antibody KD/burosumab KD): 6
  Kd: 0.00415 nM

B3: UGX192 (antibody, human IgG1, kappa, V domains shown)
VH: QVQLVQSGAEVKKPGASVKVSCKASGYTFTNHYMHWVRQAPGQGLEWMGIIFPISGSTSNAQKFQGRVTMTRDTSTSTVYMELSSLRSEDTAVYYCARDIIDAFDFWGQGTMVTVSS
VL: AIQLTQSPSSLSASVGDRVTITCRASQGISSALVWYQQKPGKAPKLLIYDASSLESGVPSRFSGSGSGTDFTLTISSLQPEDFATYYCQQFNDYFTFGPGTKVDIKR
notes: also called HC:N52F, HC:V101I
[3]
  Kd: 20.6 nM
  Ratio (variant antibody KD/burosumab KD): 0
  SA (surface activity): 82.3%
  koff: 0.0236 s⁻¹
  kon: 1.15e+06 M⁻¹ s⁻¹

B4: UGX166 (antibody, human IgG1, kappa, V domains shown)
VH: QVQLVQSGAEVKKPGASVKVSCKASGYTFTNHYMHWVRQAPGQGLEWMGIINPISGSTYNAQKFQGRVTMTRDTSTSTVYMELSSLRSEDTAVYYCARDIVDAFDFWGQGTMVTVSS
VL: AIQLTQSPSSLSASVGDRVTITCRASQGISSALVWYQQKPGKAPKLLIYDASSLESGVPSRFSGSGSGTDFTLTISSLQPEDFATYYCQQFNDYFTFGPGTKVDIKR
notes: also called UGX068; HC:S59Y
[3]
  Kd: 0.0224 nM
  Ratio (variant antibody KD/burosumab KD): 1
  SA (surface activity): 93.1%
  koff: 0.000196 s⁻¹
  kon: 8.77e+06 M⁻¹ s⁻¹

B5: UGX190 (antibody, human IgG1, kappa, V domains shown)
VH: QVQLVQSGAEVKKPGASVKVSCKASGYTFTNHYMHWVRQAPGQGLEWMGIINPISGSTTNAQKFQGRVTMTRDTSTSTVYMELSSLRSEDTAVYYCARDILDAFDFWGQGTMVTVSS
VL: AIQLTQSPSSLSASVGDRVTITCRASQGISSALVWYQQKPGKAPKLLIYDASSLESGVPSRFSGSGSGTDFTLTISSLQPEDFATYYCQQFNDYFTFGPGTKVDIKR
notes: also called HC:S59T, HC:V101L
[3]
  Kd: 3.08 nM
  Ratio (variant antibody KD/burosumab KD): 0
  SA (surface activity): 92.7%
  koff: 0.0103 s⁻¹
  kon: 3.35e+06 M⁻¹ s⁻¹

B6: UGX165 (antibody, human IgG1, kappa, V domains shown)
VH: QVQLVQSGAEVKKPGASVKVSCKASGYTFTNHYMHWVRQAPGQGLEWMGIINPISGSTVNAQKFQGRVTMTRDTSTSTVYMELSSLRSEDTAVYYCARDIVDAFDFWGQGTMVTVSS
VL: AIQLTQSPSSLSASVGDRVTITCRASQGISSALVWYQQKPGKAPKLLIYDASSLESGVPSRFSGSGSGTDFTLTISSLQPEDFATYYCQQFNDYFTFGPGTKVDIKR
notes: also called HC:S59V
[3]
  Kd: 0.0363 nM and 0.0448 nM
  koff: 0.000175 s⁻¹ and 0.00022 s⁻¹
  kon: 4.82e+06 M⁻¹ s⁻¹ and 4.92e+06 M⁻¹ s⁻¹

B7: UGX145 (antibody, human IgG1, kappa, V domains shown)
VH: QVQLVQSGAEVKKPGASVKVSCKASGYTFTNHYMHWVRQAPGQGLEWMGIINPISGSTSNAQKFQGRVTMTRDTSTSTVYMELSSLRSEDTAVYYCARDIVDAFDFWGQGTMVTVSS
VL: AIQLTQSPSSLSASVGDRVTITCRASQGISSALVWYQQKPGKAPKLLIYDASSLESGVPSRFSGSGSGTDFTLTISSLQPEDFATYYCQQFNDEFTFGPGTKVDIKR
notes: also called UGX042; LC:Y94E
[2]
  KD ratio (variant antibody KD/burosumab KD): 2
  Kd: 0.0133 nM
[3]
  Kd: 0.0138 nM and 0.0133 nM
  koff: 8.52e-05 s⁻¹ and 9.74e-05 s⁻¹
  kon: 6.42e+06 M⁻¹ s⁻¹ and 7.07e+06 M⁻¹ s⁻¹
[1]
  Kd: 0.0133 nM
  Ratio (variant antibody KD/burosumab KD): 2
  SA (surface activity): 87.4%
  koff: 8.52e-05 s⁻¹
  kon: 6.42e+06 M⁻¹ s⁻¹
[4]
  KD ratio (variant antibody KD/burosumab KD): 2
  Kd: 0.0129 nM

B8: UGX139 (antibody, human IgG1, kappa, V domains shown)
VH: QVQLVQSGAEVKKPGASVKVSCKASGYTFTNHYMHWVRQAPGQGLEWMGIINPISGSTSNAQKFQGRVTMTRDTSTSTVYMELSSLRSEDTAVYYCARDIVDAFDFWGQGTMVTVSS
VL: AIQLTQSPSSLSASVGDRVTITCRASQGISSALVWYQQKPGKAPKLLIYDASSLESGVPSRFSGSGSGTDFTLTISSLQPEDFATYYCQQFYDYFTFGPGTKVDIKR
notes: also called UGX038; LC:N92Y
[2]
  KD ratio (variant antibody KD/burosumab KD): 1
  Kd: 0.0164 nM
[3]
  Kd: 0.0164 nM
  Ratio (variant antibody KD/burosumab KD): 1
  SA (surface activity): 86.2%
  koff: 0.000104 s⁻¹
  kon: 6.32e+06 M⁻¹ s⁻¹
[4]
  KD ratio (variant antibody KD/burosumab KD): 1
  Kd: 0.0162 nM

B9: UGX188 (antibody, human IgG1, kappa, V domains shown)
VH: QVQLVQSGAEVKKPGASVKVSCKASGYTFTNHYMHWVRQAPGQGLEWMGIINPISGETDNAQKFQGRVTMTRDTSTSTVYMELSSLRSEDTAVYYCARDIVDAFDFWGQGTMVTVSS
VL: AIQLTQSPSSLSASVGDRVTITCRASQGISSALVWYQQKPGKAPKLLIYDASSLESGVPSRFSGSGSGTDFTLTISSLQPEDFATYYCQQFNDYFTFGPGTKVDIKR
notes: also called HC:S57E, HC:S59D
[3]
  Kd: 0.0183 nM
  Ratio (variant antibody KD/burosumab KD): 1
  SA (surface activity): 95.8%
  koff: 0.000253 s⁻¹
  kon: 1.39e+07 M⁻¹ s⁻¹

B10: UGX178 (antibody, human IgG1, kappa, V domains shown)
VH: QVQLVQSGAEVKKPGASVKVSCKASGYTFTFHYMHWVRQAPGQGLEWMGIINPISGSTFNAQKFQGRVTMTRDTSTSTVYMELSSLRSEDTAVYYCARDIVDAFDFWGQGTMVTVSS
VL: AIQLTQSPSSLSASVGDRVTITCRASQGISSALVWYQQKPGKAPKLLIYDASSLESGVPSRFSGSGSGTDFTLTISSLQPEDFATYYCQQFNDYFTFGPGTKVDIKR
notes: also called HC:N31F, HC:S59F
[3]
  Kd: 0.0212 nM
  Ratio (variant antibody KD/burosumab KD): 1
  SA (surface activity): 85.6%
  koff: 0.000134 s⁻¹
  kon: 6.33e+06 M⁻¹ s⁻¹

B11: UGX164 (antibody, human IgG1, kappa, V domains shown)
VH: QVQLVQSGAEVKKPGASVKVSCKASGYTFTNHYMHWVRQAPGQGLEWMGIINPISGSTTNAQKFQGRVTMTRDTSTSTVYMELSSLRSEDTAVYYCARDIVDAFDFWGQGTMVTVSS
VL: AIQLTQSPSSLSASVGDRVTITCRASQGISSALVWYQQKPGKAPKLLIYDASSLESGVPSRFSGSGSGTDFTLTISSLQPEDFATYYCQQFNDYFTFGPGTKVDIKR
notes: also called HC:S59T
[3]
  Kd: 0.0336 nM
  Ratio (variant antibody KD/burosumab KD): 1
  SA (surface activity): 91.9%
  koff: 0.00019 s⁻¹
  kon: 5.64e+06 M⁻¹ s⁻¹

B12: UGX126 (antibody, human IgG1, kappa, V domains shown)
VH: QVQLVQSGAEVKKPGASVKVSCKASGYTFTNHYMHWVRQAPGQGLEWMGIINPISGSTSNAQKFQGRVTMTRDTSTSTVYMELSSLRSEDTAVYYCARDIVDAFDFWGQGTMVTVSS
VL: AIQLTQSPSSLSASVGDRVTITCRASQGISSALVWYQQKPGKAPKLLIYDADSLESGVPSRFSGSGSGTDFTLTISSLQPEDFATYYCQQFNDYFTFGPGTKVDIKR
notes: also called LC:S52D; S52D
[2]
  KD ratio (variant antibody KD/burosumab KD): 2
  Kd: 0.0124 nM
[3]
  Kd: 0.0124 nM
  Ratio (variant antibody KD/burosumab KD): 2
  SA (surface activity): 86.5%
  koff: 0.00013 s⁻¹
  kon: 1.05e+07 M⁻¹ s⁻¹
[1]
  Kd: 0.0124 nM
  Ratio (variant antibody KD/burosumab KD): 2
  SA (surface activity): 86.5%
  koff: 0.00013 s⁻¹
  kon: 1.05e+07 M⁻¹ s⁻¹
[4]
  KD ratio (variant antibody KD/burosumab KD): 2
  Kd: 0.0103 nM
